Experimental findings from PMC3718739 (PLoS ONE, 2013) are described below.

This assay deals with ARPC4-His6x (human, UniProt P59998 1-168). The experiment in a line: far-Western, overlay or dot blot. Conditions: both partners purified.

B1: GST-Rv1626 (natural protein)
chain: MTGPTTDADAAVPRRVLIAEDEALIRMDLAEMLREEGYEIVGEAGDGQEAVELAELHKPDLVIMDVKMPRRDGIDAASEIASKRIAPIVVLTAFSQRDLVERARDAGAMAYLVKPFSISDLIPAIELAVSRFREITALEGEVATLSERLETRKLVERAKGLLQTKHGMTEPDAFKWIQRAAMDRRTTMKRVAEVVLETLGTPKDT
notes: also called Rv1626-pGEX4T3nn; not shown: GST, N-terminal, kept
With B1, the binding result was “binds”.
